From publication PMC11607428, “Broadly conserved FlgV controls flagellar assembly and Borrelia burgdorferi dissemination in mice” (Nature Communications, 2024)

Biological target: the molecule itself
Assay: immunoblot after SDS-PAGE (higher molecular weight band); total protein lysate of WT/pcon ++flgV (PA267) B. burgdorferi, log and stationary phase, boiled in Laemmli buffer with beta-mercaptoethanol, Tris-Glycine gel, probed with anti-FlgV

B1: FlgV (BB0268), B. burgdorferi (natural protein)
chain: MFISRELKYILLTSVSALFISAVLGLFCGLSFFTILVRSLLQFVFFFVIGLLIEYIFKKYLSNLFSTELSGNMENKPQDDKKSDKDFKENLDFQNKNSLYENSQNISSSGDFIEEVKKYKFETEDVSRGSDKNKKMSFIEDNDPKVVADAIKTLMSKKE
notes: FlgV (BB0268) of Borrelia burgdorferi B31; ORF of 480 bp; antigen for the antibody was amino acids 58-159; two predicted transmembrane helices (amino acids 13 to 35 and 40 to 57); native flgV ORF amplified from B. burgdorferi A3 genomic DNA for the overexpression plasmid; Untagged protein; Strains, plasmids and primers are in Supplementary Data 1; also called bb0268 gene product; previously …
For B1, the “stoichiometry N” value was 2.
